The values below come from US20030088058A1, “ISOPENICILLIN N SYNTHETASE AND DEACETOXYCEPHALOSPORIN C SYNTHETASE ENZYMES AND METHODS” (priority 1996, published 2003).

In series [1] the test system is DAOCS. The series is described as follows: Specific activity of DAOCS mutants by turnover of α-[14C]-ketoglutarate with penicillin substrates. In kind it is biochemical. The protocol:
(§1) Almost all the mutants expressed well, except R88I, R88Q and R87Q/R287Q whereby the expression level was only about half of others. Generally the expression level of colonies was about 10˜20% of soluble protein at 27° C. Moreover, recombinant enzyme of P168V mutant was insoluble. These mutant enzymes were purified to ˜60-70% purity with Resouce-Q column (Phamacia). The activity of each mutant with respect to penicillin N and its side-chain analogues was analysed by bioassay. […] Screening of the substrate conversion of penicillins mutants was also performed using a assay with radiolabelled α-ketoglutarate. The reaction conditions were the same as for bioassay except that [^14C]-α-ketoglutarate was used.

A further series has as its system E. coli X580 cells. The series is described as follows: Hole-plate bioassay containing penicillinase, on enzyme reaction products. It counts as cell-based. The conditions noted are these: products of the reaction with penicillin G; hole-plate assay with penicillinase. The protocol: as §1
Series [2] has as its target DAOCS (Streptomyces clavuligerus, UniProt P18548). The note with it: compared with conversion of penicillin N to DAOC; cited from earlier work.
Series [3] in a line: Expression of recombinant DAOCS mutants, solubility of the enzyme. The conditions noted are these: expressed at 27° C.
Text: A U.S.E mutagenesis kit (Phamacia) was used for all the mutagenesis reactions and a Pst I restriction site on the pET vector was selected. Selection of single and double mutants were successfully performed from colonies by restriction enzyme digestion. (Sambrook et al, Molecular Cloning, A Laboratory Manual, Cold Spring Harbour, USA, 1989). […] Mutations of DAOCS (Table 1) were confirmed by sequencing according to the dideoxy method of Sanger. Mutants were designed after study of the IPNS-Mn^2+ and the IPNS-Fe(II)-ACV structures. Polar residues with which the side chain D-α-aminoadipoyl (carboxylate and amino groups) might bind to were identified.
as §1

Changes are numbered by the printed parent chain. In names and notes the source's numbering stands.

B1: Wild type: unmodified deacetoxycephalosporin C synthase (DAOCS, expandase) (protein, UniProt P18548 1-311, looked up)
Deacetoxycephalosporin C …: MDTTVPTFSLAELQQGLHQDEFRRCLRDKGLFYLTDCGLTDTELKSAKDLVIDFFEHGSEAEKRAVTSPVPTMRRGFTGLESESTAQITNTGSYSDYSMCYSMGTADNLFPSGDFERIWTQYFDRQYTASRAVAREVLRATGTEPDGGVEAFLDCEPLLRFRYFPQVPEHRSAEEQPLRMAPHYDLSMVTLIQQTPCANGFVSLQAEVGGAFTDLPYRPDAVLVFCGAIATLVTGGQVKAPRHHVAAPRRDQIAGSSRTSSVFFLRPNADFTFSVPLARECGFDVSLDGETATFQDWIGGNYVNIRRTSKA
Regarding B1, the Specific activity turned out to be 1.0 ± 0.2 nmol/min/mg in the series with DAOCS [1] (substrate 6-Aminopenicillanic acid (6-APA)); 2.7 nmol/min/mg with DAOCS [1] (substrate Adipyl-6-APA); 1.4 ± 0.6 nmol/min/mg in the series on DAOCS [1] (substrate Ammoxicillin); 0 nmol/min/mg in the series on DAOCS [1] (substrate Ampicillin); 0 nmol/min/mg with DAOCS [1] (substrate Carbenicillin); 1.6 ± 0.6 nmol/min/mg in the series on DAOCS [1] (substrate Cloxacillin). In addition, the Specific activity is given as 0 nmol/min/mg in the series on DAOCS [1] (substrate Methicillin); 5.1 ± 0.4 nmol/min/mg in the series with DAOCS [1] (substrate Penicillin G); 6.4 nmol/min/mg in the series on DAOCS [1] (substrate Penicillin N, uncoupled decarboxylation subtracted); 5.3 ± 0.3 nmol/min/mg with DAOCS [1] (substrate Penicillin V); 0 nmol/min/mg in the series with DAOCS [1] (substrate oxacillin); 0 nmol/min/mg in the series on DAOCS [1] (substrate piperacillin). In the series with DAOCS [1] (substrate oxacillin), the “Oxacillin accepted as substrate (in words)” value was “neither oxacillin nor piperacillin are substrates”. In addition, the “Piperacillin accepted as substrate (in words)” value in the series with DAOCS [1] (substrate piperacillin) is “neither oxacillin nor piperacillin are substrates”. Further, the “Inhibition of growth of E. coli X580 cells” value with E. coli X580 cells was “showed the same inhibition”. The “Efficiency of conversion of penicillin G to phenylacetylcephalosporin C” value with DAOCS [2] is reported as “much less efficient”.

B2: P168V: DAOCS mutant whose recombinant enzyme was insoluble (protein, UniProt P18548 1-311, looked up, variant P168V)
Deacetoxycephalosporin C …: B1 Deacetoxycephalosporin C … with P168V
As for B2, the “Solubility of recombinant enzyme” value in series [3] is “insoluble”.
